Data on nine molecules can be found in patent US20070020252A1, “Modified protease inhibitors” (priority 2003, published 2007).

Series [1] can be described thus: Pharmacokinetic study in mice: plasma clearance of 125I-labeled protein, SEC of plasma. The series is classed as in vivo. As to conditions: for α half life: Table 4 summary; for α Phase Clearance (%) / α Phase Half-life / β Phase Clearance (%) / β Phase Half-life (hr) / β Phase Half-life (min): tail vein injection, bi-exponential fit. The procedure:
The pharmacokinetics of DX-890 and the PEGylated DX-890 compounds were measured by iodinating the proteins on available tyrosine residues and measuring their clearance in mice.
Samples were radio-iodinated by the indirect method using the IODO-GEN reagent (method from Pierce Chem. Co., and first described by Chizzonite [J Immunol 147, 1548-1556, 1991; J. Immunol 148, 3117-3124, 1992]). Samples were incubated with the ^125I-NaI solution for 9 min at which time tyrosine (10 mg/mL, a saturated solution) was added to quench the reaction. After about 15 min a 5 μl aliquot was removed as a standard for counting.
For each labeling reaction, the ^125I-labeled material (approx. 0.6 mL) was purified using a single 5 mL D-salt 1800 polyacrylamide column (Pierce Chem. Co.). […] Samples were applied in and columns were eluted with a series of 0.3 mL aliquots. Recovery of applied activity in all protein fractions was >75% and the total recovery of applied activity was >90%. The fractions containing peak levels of labeled protein were pooled for animal injections. To prepare the injectate, the pool was diluted with Tris buffer (pH 7.5) so that the 100 μL injection volume contained about 10 μg of labeled material.
Time of injection and time of sampling were recorded. At sacrifice, samples of 0.5 ml were collected into anticoagulant (0.02 ml EDTA). Cells were spun down and separated from plasma, and cells were stored at −20° C. Plasma was divided into two aliquots, one frozen and one stored at 4° C. for immediate analysis. Analysis included gamma counting of all samples. In addition, analysis was performed for two plasma samples (N=2) at each time point, i.e., 0, and 30 minutes, for ^125I-DX-890, and 0, 30 minutes, and 24 h for the ^125I-DX-890-PEG conjugates. A SEC-HPLC Superose-12 column was used with an in-line radiation detector (FIGS. 4-7).
The solid curves through the sets of data plotted in FIG. 3 are four-parameter, least-squares fits of Equation 3 to the data. Table 3 presents the values for % α Phase, α Phase Half-life, % β Phase, and β Phase Half-life extracted from the least squares fits to the in vivo clearance data set obtained for each of the four compounds tested in mice.

The target of series [2] is T1, human neutrophil elastase (HNE) (Homo sapiens, UniProt P08246).
T1 sequence (P08246 30-267): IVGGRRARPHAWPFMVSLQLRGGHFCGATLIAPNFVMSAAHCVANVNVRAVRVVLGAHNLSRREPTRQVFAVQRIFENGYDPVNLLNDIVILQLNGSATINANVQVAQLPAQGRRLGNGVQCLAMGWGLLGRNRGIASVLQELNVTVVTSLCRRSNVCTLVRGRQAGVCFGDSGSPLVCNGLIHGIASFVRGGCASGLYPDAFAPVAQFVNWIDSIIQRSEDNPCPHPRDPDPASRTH
Nature of the series: Ki measurement: tight-binding inhibition of HNE, fluorogenic substrate hydrolysis. It is filed as biochemical. The procedure: (§1) Equilibrium inhibition constants for the PEGylated DX-890 samples were determined according to the tight-binding inhibition model with formation of a reversible complex (1:1 stoichiometry). Reactions were set up with 100 pM enzyme and a range of inhibitor concentrations (0-4 nM) at 30° C. in 50 mM HEPES, pH 7.5, 150 mM NaCl, and 0.1% Triton X-100. Following a 24 h incubation, substrate was added (25 μM) to the enzyme-inhibitor solution and the rate of substrate hydrolysis monitored at an excitation of 360 nm and an emission of 460 nm. Plots of the percent remaining activity versus active inhibitor concentration were fit by nonlinear regression analysis to Equation 1 to determine equilibrium dissociation constants. Both the Dyax DX-890 reference lot 00B16 and the DX-890 used for PEGylations, NBG2016/9 were analyzed for comparison. [formula] Where: • % A=percent activity • I=DX-890 • E=HNE concentration • Ki=equilibrium inhibition constant

A short description of series [3]: Pharmacokinetic study in rabbits: plasma clearance of 125I-labeled protein, SEC of plasma. The series is classed as in vivo, New Zealand White rabbits. The procedure:
Pharmacokinetic properties of DX-890 and PEG-30-DX-890 (conjugation at pH 7.4) were measured by iodinating the proteins and measuring clearance of the radiolabel from circulation in rabbits. The two DX-890 preparations were iodinated with iodine-125 using the iodogen method. After radiolabeling, the two labeled protein preparations were purified from unbound label by size exclusion chromatography (SEC). Fractions from the SEC column having the highest radioactivity were pooled. The purified, radiolabeled preparations were characterized for specific activity by gamma counting and for purity by SEC using a Superose-12 column equipped with an in-line radiation detector.
New Zealand White rabbits (ca. 2.5 Kg) were used for clearance measurements, with one animal used for each of the two labeled protein preparations. The radiolabeled preparation was injected into the animal via an ear vein. One blood sample was collected per animal per time point with early time points at approximately 0, 2.5, 5, 7, 15, 30, 60, and 90 minutes post injection and later time points at 4, 8, 16, 24, 30, 48, 72, 96, 144, 168, and 192 hours post injection. Samples (about 0.5 mL) were collected into anticoagulant (EDTA) containing tubes. Cells were separated from the plasma fraction by centrifugation. The plasma fraction was divided into two aliquots. One plasma aliquot was stored at −70° C. and the other aliquot was kept at 4° C. for immediate analyse's. Sample analyses included radiation counting for clearance rate determinations and SEC chromatography to test for changes in the size distribution of radiolabeled material in vivo (stability).

Series [4] addresses T2, human neutrophil elastase (human, UniProt P08246 30-247).
T2 construct: also called hNE; HNE
T2 sequence (looked up): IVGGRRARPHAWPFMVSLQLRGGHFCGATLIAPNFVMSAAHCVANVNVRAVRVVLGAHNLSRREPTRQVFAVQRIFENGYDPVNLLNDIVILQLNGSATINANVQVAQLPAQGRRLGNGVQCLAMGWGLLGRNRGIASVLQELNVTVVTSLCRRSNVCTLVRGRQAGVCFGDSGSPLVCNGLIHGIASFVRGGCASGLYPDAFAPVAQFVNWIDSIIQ
Nature of the series: enzyme inhibition, tight-binding model; 100 pM hNE (summary table, repeats Table 3). Here is the method:
as §1, with “comparison.” for “comparison. [formula] Where: • % A=percent activity • I=DX-890 • E=HNE concentration • Ki=equilibrium inhibition constant”

The target of series [5] is T2, human neutrophil elastase. Nature of the series: enzyme inhibition, tight-binding model; 100 pM hNE, 0-4 nM inhibitor, 24 h incubation at 30 C, fluorogenic substrate. Here is the method: as §1, with “comparison.” for “comparison. [formula] Where: • % A=percent activity • I=DX-890 • E=HNE concentration • Ki=equilibrium inhibition constant”
Series [6] addresses T2, human neutrophil elastase. Nature of the series: enzyme inhibition, tight-binding model; 100 pM hNE; reference native DX-890. Here is the method: as §1, with “comparison.” for “comparison. [formula] Where: • % A=percent activity • I=DX-890 • E=HNE concentration • Ki=equilibrium inhibition constant”
The mark [7] stands for this setting: ear vein injection, bi-exponential fit.

Where no end group is shown, it is not given here.

As a reminder, the Ki is a measure of affinity in units of concentration, obtained from inhibition or displacement. Read a low Ki as a stronger hold on the target.

On to “PEG20-DX-890-6.0: DX-890 conjugated to a 20 kDa PEG moiety (MPEG-SPA20K, conjugated at pH 6), mono-PEGylated (EACNLPIVRGPCIAFFPRWAFDAVKGKCVLFPYGGCQGNGNKFYSEKECREYCGVP)”, for which, in series [1], the α half life worked out at 0.25 h, the “α Phase Clearance (%)” value came out at 53%, the “α Phase Half-life” value turned out to be 0.278 h and the “β Phase Clearance (%)” value is reported as 47%. Moreover, in series [1], the “β Phase Half-life (hr)” value was determined as 4.9 h and the “β Phase Half-life (min)” value worked out at 296 min.

Regarding “PEG20-DX-890-7.4: DX-890 conjugated to a 20 kDa PEG moiety (MPEG-SPA20K, conjugated at pH 7.4), mono-PEGylated (EACNLPIVRGPCIAFFPRWAFDAVKGKCVLFPYGGCQGNGNKFYSEKECREYCGVP)”, in series [1], the “α Phase Clearance (%)” value was 58%, the “α Phase Half-life” value is 0.417 h, the “β Phase Clearance (%)” value was found to be 42% and the “β Phase Half-life (hr)” value is 5.1 h. For the same molecule, the “β Phase Half-life (min)” value in series [1] is given as 307 min.

“PEG30-DX-890-6.0: DX-890 conjugated to a 30 kDa PEG moiety (MPEG-SPA30K, conjugated at pH 6), mono-PEGylated (EACNLPIVRGPCIAFFPRWAFDAVKGKCVLFPYGGCQGNGNKFYSEKECREYCGVP)”: in series [1], the “β phase half life” value is “about 8 hr”, the α half life is 0.317 h, the “α Phase Clearance (%)” value worked out at 33% and the “α Phase Half-life” value is 0.32 h. In series [1], the “β Phase Clearance (%)” value came out at 67%, the “β Phase Half-life (hr)” value is 8.4 h and the “β Phase Half-life (min)” value is recorded as 505 min.

In the case of “PEG30-DX-890-7.4: DX-890 conjugated to a 30 kDa PEG moiety (MPEG-SPA30K, conjugated at pH 7.4), mono-PEGylated (EACNLPIVRGPCIAFFPRWAFDAVKGKCVLFPYGGCQGNGNKFYSEKECREYCGVP; not fully specified)”, the “Ki relative to native DX-890” value in series [2] was “twice”. Also, in series [3], the “fraction of total material in the slow clearance portion relative to unmodified DX-890” value is recorded as “nearly doubles”, the in vivo half-life entry is given as “about 3 days” and the “increase of T1/2β versus unmodified protein” value is reported as “about 25 fold”. Further, the “time label remains stably associated with injectate peaks” value in series [3] (SEC analysis of plasma samples) is reported as “at least 72 hours”. Further, in series [3] (setting [7]), the “% α” value is recorded as 55%, the “% β” value was found to be 45%, the T1/2α was 2.73 h and the T1/2β is 69.23 h. Besides, the “relative levels of circulating radiolabel versus unmodified protein” value in series [3] (one day post injection) was “more than 100 fold”.

B1: DX-890 (designed binder)
chain: EACNLPIVRGPCIAFFPRWAFDAVKGKCVLFPYGGCQGNGNKFYSEKECREYCGVP
modifications: disulfide (positions not given here); also: three intramolecular disulfides, pairing not given here
notes: 56 aa, three intramolecular disulfides; also called EPI-hNE4; Native DX-890
For the molecule B1, the Ki in series [4] and in series [5] was 7 pM throughout.

B2: DX-890 conjugated to a 20 kDa PEG moiety (conjugated at pH 7.4) (designed binder)
chain: B1 chain
modifications: single 20 kDa mPEG (MPEG-SPA20K) attached, mono-PEGylated; reaction at pH 7.4, headed 'Random-Site Modification' (site not determined)
notes: also called PEG20-DX-890-7.4; +20K PEG, pH 7.4
Regarding B2, the inhibitory constant (Ki) in series [4] and in series [5] was 8 pM each time.

B3: DX-890 conjugated to a 30 kDa PEG moiety (conjugated at pH 6) (designed binder)
chain: B1 chain
modifications: single 30 kDa mPEG (MPEG-SPA30K) attached, mono-PEGylated; reaction at pH 6.0, headed 'N-Terminal-Site Modification'
notes: also called PEG30-DX-890-6.0; +30K PEG, pH 6
Regarding B3, the Ki in series [4] and in series [5] was 8 pM throughout.

B4: DX-890 conjugated to a 20 kDa PEG moiety (conjugated at pH 6) (designed binder)
chain: B1 chain
modifications: single 20 kDa mPEG (MPEG-SPA20K) attached, mono-PEGylated; reaction at pH 6.0, headed 'N-Terminal-Site Modification'
notes: also called PEG20-DX-890-6.0; +20K PEG, pH 6
Consider B4, for which the Ki in series [4] and in series [5] was 7 pM throughout.

B5: DX-890 conjugated to a 30 kDa PEG moiety (conjugated at pH 7.4) (designed binder)
chain: B1 chain
modifications: single 30 kDa mPEG (MPEG-SPA30K) attached, mono-PEGylated; reaction at pH 7.4, headed 'Random-Site Modification' (site not determined)
notes: also called PEG30-DX-890-7.4; +30K PEG, pH 7.4
Turning to B5, the “fold Ki relative to native DX-890” value in series [6] came to 2 fold. Also, the Ki in series [4] and in series [5] was 16 pM throughout.
